This data set deals with the molecule itself. As to the kind of experiment: ITC dilution of a 100 µM stock at 25° C.; self-association of the decamer, no CTC could be determined.

B1: Prx1 from Pyrococcus furiosus (Pfu-Prx) in which the cysteine residues have been mutated into serine residues (enzyme)
chain: MIVIGEKFPEVEVKTTHGVIKLPDHFTKQGKWFMLFSHPADFTPVSTTEFYGLQIRLEKFRELGVEPIGLSVDQVFSHLKWMEWIKEKLGVEIEFPVIADDRGDLAEKLGMIPSGSTITARAVFIVDDKGIIRAIVYYPAEVGRDWDEILRLVKALKISTEKGVALPHKWPNNELIGDKVIVPPASSVEQIKEREEAKAKGEIESYDWWFSYKKLE
notes: not described
In the case of B1, the binding result is given as “binds”.

Source of the values: patent US20240043824A1 (UNIVERSITE DE LORRAINE, published 2024).
